Assay results reported in US20250043002A1 (Regeneron, published 2025).

Columns and labels:
[1] = biological target: T1, human CD28 on cells (endogenous on Jurkat/NFkB-Luc cells; human primary CD4+ T cells) (human, UniProt P10747 19-220); test: flow cytometry, Jurkat/NFkB-Luc cells (endogenous CD28)
T1 construct: whole, on cells

[2] = biological target: human CD28 expressed with a C-terminal murine Fc tag (hCD28.mFc) (human); test: SPR Biacore 25 C, hCD28.mFc captured by anti-mFc, antibody injected
[3] = biological target: T2, human PD-L1 expressed on cells (HEK293/hCD20/hPSMA/hPD-L1; WSU-DLCL2/hPD-L1) (human, UniProt Q9NZQ7 19-290); test: flow cytometry, HEK293/hCD20/hPSMA/hPD-L1 cells
T2 construct: whole, on cells; also called human programmed death ligand-1
T2 sequence (Q9NZQ7 19-290): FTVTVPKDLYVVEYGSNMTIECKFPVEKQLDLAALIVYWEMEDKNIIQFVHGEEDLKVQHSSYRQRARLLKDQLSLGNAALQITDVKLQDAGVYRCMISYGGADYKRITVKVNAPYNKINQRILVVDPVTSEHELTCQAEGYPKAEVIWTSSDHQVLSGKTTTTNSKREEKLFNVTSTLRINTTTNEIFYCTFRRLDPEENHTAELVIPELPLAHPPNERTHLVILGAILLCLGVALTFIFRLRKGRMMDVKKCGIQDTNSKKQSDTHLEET

[4] = biological target: T3, hPD-L1-mFc: hPD-L1 extracellular domain (amino acids F19-T239) expressed with the Fc portion of mouse IgG2a … (human; mouse, UniProt Q9NZQ7 19-239); test: blocking ELISA, 0.7 nM hPD-L1-mFc on plate-coated hPD1-hFc
T3 construct: range 19-239; not shown: Fc portion of mouse IgG2a, amino acids E98-K330
T3 sequence (Q9NZQ7 19-239 limits assumed): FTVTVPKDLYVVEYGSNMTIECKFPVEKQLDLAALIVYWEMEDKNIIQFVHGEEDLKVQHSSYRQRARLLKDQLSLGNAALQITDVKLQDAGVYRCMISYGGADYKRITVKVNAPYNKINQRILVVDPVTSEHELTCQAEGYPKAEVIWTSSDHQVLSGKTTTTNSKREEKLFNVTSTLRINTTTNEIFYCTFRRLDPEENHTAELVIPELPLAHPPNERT

[5] = biological target: T1, human CD28 on cells (endogenous on …); test: cell-based or functional assay
[6] = biological target: T1, human CD28 on cells (endogenous on …); test: cell-based or functional assay; remark: listed apart in the source
[7] = biological target: T2, human PD-L1 expressed on cells …; test: cell-based or functional assay
[8] = biological target: human PD-L1 expressed with a C-terminal myc-myc-hexahistidine tag (hPD-L1.mmH) (human); test: SPR Biacore 25 C, antibody captured by anti-hFc, hPD-L1.mmH injected
Chain of human PD-L1 expressed with a C-terminal myc-myc-hexahistidine tag (hPD-L1.mmH) (human) (chain, as listed by the source limits assumed): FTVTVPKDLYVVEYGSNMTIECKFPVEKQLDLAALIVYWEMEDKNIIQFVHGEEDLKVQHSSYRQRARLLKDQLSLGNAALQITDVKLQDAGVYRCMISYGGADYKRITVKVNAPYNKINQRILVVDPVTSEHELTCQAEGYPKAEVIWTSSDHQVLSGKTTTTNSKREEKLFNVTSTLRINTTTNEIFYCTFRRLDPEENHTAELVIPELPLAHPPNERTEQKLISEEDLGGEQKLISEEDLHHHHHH

[9] = biological target: T1, human CD28 on cells (endogenous on …); test: flow cytometry, Jurkat/NFkB-Luc cells (endogenous CD28); EC50 NC

B1: REGN6193 (bispecific antibody, human IgG4 S228P, kappa)
heavy 1: EVQLVESGGGLVQPGRSLRLSCAASGFTFDDYALHWVRQAPGKGLEWVSGISWTGGTIDYADSVKGRFTISRDNAKNSLYLQMSSLRTEDTAIYYCTRDIRGNWKYGGWFDPWGQGTLVTVSSASTKGPSVFPLAPCSRSTSESTAALGCLVKDYFPEPVTVSWNSGALTSGVHTFPAVLQSSGLYSLSSVVTVPSSSLGTKTYTCNVDHKPSNTKVDKRVESKYGPPCPPCPAPPVAGPSVFLFPPKPKDTLMISRTPEVTCVVVDVSQEDPEVQFNWYVDGVEVHNAKTKPREEQFNSTYRVVSVLTVLHQDWLNGKEYKCKVSNKGLPSSIEKTISKAKGQPREPQVYTLPPSQEEMTKNQVSLTCLVKGFYPSDIAVEWESNGQPENNYKTTPPVLDSDGSFFLYSRLTVDKSRWQEGNVFSCSVMHEALHNHYTQKSLSLSLGK
heavy 2: EVQLVESGGGLVQPGGSLRLSCAASGFTFSRNNMHWVRQAPGKGLEYVSGISSNGGRTYYADSVKGRFTISRDNSKNTLYLQMGGLRAADMAVYFCTRDDELLSFDYWGQGTLVTVSSASTKGPSVFPLAPCSRSTSESTAALGCLVKDYFPEPVTVSWNSGALTSGVHTFPAVLQSSGLYSLSSVVTVPSSSLGTKTYTCNVDHKPSNTKVDKRVESKYGPPCPPCPAPPVAGPSVFLFPPKPKDTLMISRTPEVTCVVVDVSQEDPEVQFNWYVDGVEVHNAKTKPREEQFNSTYRVVSVLTVLHQDWLNGKEYKCKVSNKGLPSSIEKTISKAKGQPREPQVYTLPPSQEEMTKNQVSLTCLVKGFYPSDIAVEWESNGQPENNYKTTPPVLDSDGSFFLYSRLTVDKSRWQEGNVFSCSVMHEALHNRFTQKSLSLSPGK
light: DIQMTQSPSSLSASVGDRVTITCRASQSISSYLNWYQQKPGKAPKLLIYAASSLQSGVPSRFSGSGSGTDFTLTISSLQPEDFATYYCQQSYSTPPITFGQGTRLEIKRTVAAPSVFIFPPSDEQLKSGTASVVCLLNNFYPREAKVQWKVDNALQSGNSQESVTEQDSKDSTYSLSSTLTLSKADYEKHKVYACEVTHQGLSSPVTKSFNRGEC
notes: common light chain 1-39; also called PD-L1×CD28; anti-PD-L1 × anti-CD28 bispecific antibody
Fold Change (max MFI over secondary antibody alone) [1]: 21.8 fold
Max gMFI [1]: 9200 gMFI
90 nM mAb Bind (RU) [2]: 21.6 RU
Kd [2]: 46.9 nM
koff [2]: 0.00168 s⁻¹
kon [2]: 35900 M⁻¹ s⁻¹
t1/2 [2]: 6.9 min
EC50 [3]: 1.3 nM
Fold Change (max MFI over secondary antibody alone) [3]: 847 fold
Max gMFI [3]: 1.3e+06 gMFI
% Blocking at 100 nM mAb [4]: 98%
IC50 [4]: 0.82 nM
NFkB-luciferase EC50, Jurkat/NFkB-Luc + HEK293/hCD20/hPSMA/hPD-L1 + CD20×CD3 [5]: 0.413 nM
NFkB-luciferase MAX (RLU), Jurkat/NFkB-Luc + HEK293/hCD20/hPSMA [5]: 14200 RLU
NFkB-luciferase MAX (RLU), Jurkat/NFkB-Luc + HEK293/hCD20/hPSMA + CD20×CD3 [5]: 217000 RLU
NFkB-luciferase MAX (RLU), Jurkat/NFkB-Luc + HEK293/hCD20/hPSMA/hPD-L1 [5]: 19500 RLU
NFkB-luciferase MAX (RLU), Jurkat/NFkB-Luc + HEK293/hCD20/hPSMA/hPD-L1 + CD20×CD3 [5]: 2.73e+06 RLU
IL2 release EC50, CD4+ T cells + HEK293/hCD20/hPSMA/hPD-L1 + CD20×CD3 [6]: 0.144 nM
IL2 release MAX (RLU), CD4+ T cells + HEK293/hCD20/hPSMA [6]: 4250 RLU
IL2 release MAX (RLU), CD4+ T cells + HEK293/hCD20/hPSMA + CD20×CD3 [6]: 12600 RLU
IL2 release MAX (RLU), CD4+ T cells + HEK293/hCD20/hPSMA/hPD-L1 [6]: 2760 RLU
IL2 release MAX (RLU), CD4+ T cells + HEK293/hCD20/hPSMA/hPD-L1 + CD20×CD3 [6]: 141000 RLU
AP-1 luciferase EC50, WSU-DLCL2/hPD-L1 + Jurkat/AP1-Luc/hPD1 [7]: 0.202 nM
AP-1 luciferase MAX (RLU), WSU-DLCL2/hPD-L1 + Jurkat/AP1-Luc/hPD1 [7]: 1.49e+06 RLU
30 nM hPD-L1.mmH Bind (RU) [8]: 44.2 RU
Kd [8]: 0.116 nM
koff [8]: 6.37e-05 s⁻¹
kon [8]: 548000 M⁻¹ s⁻¹
t1/2 [8]: 3.02 h

B2: mAb9373 (antibody, V domains shown)
VH: QVQLVQSGTEVKKPGASVKVSCKASGYTFTAYYMHWVRQAPGQGLDWMGWISPNSGFTNYAQKFQGRVTMTRDTSINTFYMELSGLRSDDTAVYYCAREGSTHHNSFDPWGQGTLVTVSS
VL: not shown
notes: Bivalent parental antibody; also called parental bivalent anti-PD-L1 antibody; PD-L1 bivalent control antibody
Fold Change (max MFI over secondary antibody alone) [9]: 5.2 fold
90 nM mAb Bind (RU) [2]: -1.3 RU
NFkB-luciferase MAX (RLU), Jurkat/NFkB-Luc + HEK293/hCD20/hPSMA [5]: 11000 RLU
NFkB-luciferase MAX (RLU), Jurkat/NFkB-Luc + HEK293/hCD20/hPSMA + CD20×CD3 [5]: 181000 RLU
NFkB-luciferase MAX (RLU), Jurkat/NFkB-Luc + HEK293/hCD20/hPSMA/hPD-L1 [5]: 11100 RLU
NFkB-luciferase MAX (RLU), Jurkat/NFkB-Luc + HEK293/hCD20/hPSMA/hPD-L1 + CD20×CD3 [5]: 155000 RLU
IL2 release MAX (RLU), CD4+ T cells + HEK293/hCD20/hPSMA [6]: 4530 RLU
IL2 release MAX (RLU), CD4+ T cells + HEK293/hCD20/hPSMA + CD20×CD3 [6]: 9080 RLU
IL2 release MAX (RLU), CD4+ T cells + HEK293/hCD20/hPSMA/hPD-L1 [6]: 3640 RLU
IL2 release MAX (RLU), CD4+ T cells + HEK293/hCD20/hPSMA/hPD-L1 + CD20×CD3 [6]: 6960 RLU

B3: mAb9364 (antibody, V domains shown)
VH: EVQLVESGGGLVQPGRSLRLSCAASGFTFDDYALHWVRQAPGKGLEWVSGISWTGGTIDYADSVKGRFTISRDNAKNSLYLQMSSLRTEDTAIYYCTRDIRGNWKYGGWFDPWGQGTLVTVSS
VL: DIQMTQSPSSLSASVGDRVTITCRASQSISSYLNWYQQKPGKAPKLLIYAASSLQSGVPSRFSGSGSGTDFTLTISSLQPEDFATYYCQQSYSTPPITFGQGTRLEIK
notes: as for B2
Fold Change (max MFI over secondary antibody alone) [9]: 4.7 fold
90 nM mAb Bind (RU) [2]: -0.9 RU
EC50 [3]: 0.73 nM
Fold Change (max MFI over secondary antibody alone) [3]: 401 fold
Max gMFI [3]: 620000 gMFI
% Blocking at 100 nM mAb [4]: 99%
IC50 [4]: 0.52 nM
NFkB-luciferase MAX (RLU), Jurkat/NFkB-Luc + HEK293/hCD20/hPSMA [5]: 44400 RLU
NFkB-luciferase MAX (RLU), Jurkat/NFkB-Luc + HEK293/hCD20/hPSMA + CD20×CD3 [5]: 180000 RLU
NFkB-luciferase MAX (RLU), Jurkat/NFkB-Luc + HEK293/hCD20/hPSMA/hPD-L1 [5]: 57100 RLU
NFkB-luciferase MAX (RLU), Jurkat/NFkB-Luc + HEK293/hCD20/hPSMA/hPD-L1 + CD20×CD3 [5]: 165000 RLU
IL2 release MAX (RLU), CD4+ T cells + HEK293/hCD20/hPSMA [6]: 4360 RLU
IL2 release MAX (RLU), CD4+ T cells + HEK293/hCD20/hPSMA + CD20×CD3 [6]: 8980 RLU
IL2 release MAX (RLU), CD4+ T cells + HEK293/hCD20/hPSMA/hPD-L1 [6]: 3680 RLU
IL2 release MAX (RLU), CD4+ T cells + HEK293/hCD20/hPSMA/hPD-L1 + CD20×CD3 [6]: 10900 RLU
AP-1 luciferase EC50, WSU-DLCL2/hPD-L1 + Jurkat/AP1-Luc/hPD1 [7]: 0.00651 nM
AP-1 luciferase MAX (RLU), WSU-DLCL2/hPD-L1 + Jurkat/AP1-Luc/hPD1 [7]: 1.04e+06 RLU
30 nM hPD-L1.mmH Bind (RU) [8]: 112 RU
Kd [8]: 0.13 nM
koff [8]: 7.42e-05 s⁻¹
kon [8]: 571000 M⁻¹ s⁻¹
t1/2 [8]: 2.59 h
